According to patent US20250002574A1 (SUNSHINE LAKE PHARMA, published 2025):

T1: recombinant OSM (Genscript-z03132) (UniProt P13725 26-221, limits assumed)
T1 sequence (looked up): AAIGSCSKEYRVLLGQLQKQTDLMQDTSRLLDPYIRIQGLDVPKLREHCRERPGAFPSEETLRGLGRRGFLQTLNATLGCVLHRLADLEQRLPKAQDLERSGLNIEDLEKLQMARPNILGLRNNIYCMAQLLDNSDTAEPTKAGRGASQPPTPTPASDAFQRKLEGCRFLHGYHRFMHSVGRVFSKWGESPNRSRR

T2: recombinant CLC (R&D systems, 962-CL-050) (UniProt Q9UBD9 28-225)
T2 sequence (looked up): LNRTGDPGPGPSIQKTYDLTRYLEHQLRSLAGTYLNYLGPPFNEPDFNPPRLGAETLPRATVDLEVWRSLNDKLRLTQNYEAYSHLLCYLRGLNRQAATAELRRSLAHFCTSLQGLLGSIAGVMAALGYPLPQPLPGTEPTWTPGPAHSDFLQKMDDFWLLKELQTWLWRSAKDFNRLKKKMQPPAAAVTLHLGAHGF

T3: recombinant IL-31 (Peprotech, 200-31) (UniProt Q6EBC2 24-164)
T3 sequence (looked up): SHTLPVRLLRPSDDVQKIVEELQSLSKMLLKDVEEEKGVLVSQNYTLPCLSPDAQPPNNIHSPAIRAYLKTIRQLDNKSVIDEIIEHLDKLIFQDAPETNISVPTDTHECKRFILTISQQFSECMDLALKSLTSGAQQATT

T4: recombinant CNTF (R&D systems, 257-NT-010) (UniProt P26441 2-200)
T4 sequence (looked up): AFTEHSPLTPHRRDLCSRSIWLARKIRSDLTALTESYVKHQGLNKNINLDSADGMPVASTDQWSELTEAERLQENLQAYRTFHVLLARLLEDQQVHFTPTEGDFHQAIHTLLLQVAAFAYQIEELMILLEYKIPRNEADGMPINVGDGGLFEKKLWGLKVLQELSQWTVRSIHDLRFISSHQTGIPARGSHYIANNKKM

T5: recombinant CT-1 (R&D systems, 612-CD-010) (UniProt Q16619 2-201)
T5 sequence (looked up): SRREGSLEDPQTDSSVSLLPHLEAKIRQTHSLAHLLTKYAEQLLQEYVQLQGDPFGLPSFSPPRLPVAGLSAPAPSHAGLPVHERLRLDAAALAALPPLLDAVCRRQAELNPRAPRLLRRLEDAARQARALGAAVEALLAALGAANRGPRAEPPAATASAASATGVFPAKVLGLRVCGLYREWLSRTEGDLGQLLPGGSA

T6: recombinant IL-27 (R&D systems, 2526-IL-010) (UniProt Q8NEV9 29-243; Q14213 21-229)
T6 construct: the bought product may be a single-chain fusion
T6 sequence (looked up) 1: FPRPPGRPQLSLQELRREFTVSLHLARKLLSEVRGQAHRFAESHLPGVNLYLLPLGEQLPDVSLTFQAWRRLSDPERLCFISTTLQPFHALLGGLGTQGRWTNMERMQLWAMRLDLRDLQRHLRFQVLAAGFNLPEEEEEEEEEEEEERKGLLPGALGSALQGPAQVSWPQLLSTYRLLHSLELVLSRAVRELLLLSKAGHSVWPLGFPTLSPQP
T6 sequence (looked up) 2: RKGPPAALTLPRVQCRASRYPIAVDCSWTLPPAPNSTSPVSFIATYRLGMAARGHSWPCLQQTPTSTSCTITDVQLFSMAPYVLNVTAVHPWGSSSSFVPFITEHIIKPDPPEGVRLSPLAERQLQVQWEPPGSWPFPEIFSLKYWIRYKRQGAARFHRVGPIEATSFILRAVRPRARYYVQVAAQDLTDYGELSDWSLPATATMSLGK

T7: recombinant IL-11 (LSBio, LS-G132887-10) (UniProt P20809 22-199)
T7 sequence (looked up): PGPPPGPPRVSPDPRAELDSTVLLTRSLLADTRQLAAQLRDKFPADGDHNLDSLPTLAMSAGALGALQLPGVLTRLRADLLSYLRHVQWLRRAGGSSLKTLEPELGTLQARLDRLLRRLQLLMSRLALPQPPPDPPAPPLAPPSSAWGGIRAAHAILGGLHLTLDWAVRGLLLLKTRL

T8: recombinant human protein antigen hu-IL-11-His tag (human, UniProt P20809 22-199)
T8 construct: also called IL-11-His protein; not shown: His tag
T8 sequence (looked up): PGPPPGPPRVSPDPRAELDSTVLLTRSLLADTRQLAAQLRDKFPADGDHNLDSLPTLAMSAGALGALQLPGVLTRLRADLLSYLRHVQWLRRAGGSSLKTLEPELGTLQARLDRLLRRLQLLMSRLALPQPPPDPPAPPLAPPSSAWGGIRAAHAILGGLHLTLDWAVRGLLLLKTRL

T9: IL-11-Fc protein (UniProt P20809 22-199, limits assumed)
T9 construct: also called IL-11 recombinant protein with Fc tag; not shown: Fc tag
T9 sequence (looked up): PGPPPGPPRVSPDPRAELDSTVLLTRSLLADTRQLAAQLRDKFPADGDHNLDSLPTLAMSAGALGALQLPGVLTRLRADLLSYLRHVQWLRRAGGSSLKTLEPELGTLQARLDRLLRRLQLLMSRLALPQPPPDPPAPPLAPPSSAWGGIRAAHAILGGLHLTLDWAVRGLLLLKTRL


How the values were obtained:
[1] = molecular target: T1, recombinant OSM (Genscript-z03132); assay: ELISA, cytokine coated
[2] = molecular target: T2, recombinant CLC (R&D systems, …); assay: ELISA, cytokine coated
[3] = molecular target: T10, recombinant LIF (Peprotech, 300-05) (UniProt P15018 23-202); assay: ELISA, cytokine coated
[4] = molecular target: T3, recombinant IL-31 (Peprotech, 200-31); assay: ELISA, cytokine coated
[5] = molecular target: T4, recombinant CNTF (R&D systems, …); assay: ELISA, cytokine coated
[6] = molecular target: T5, recombinant CT-1 (R&D systems, …); assay: ELISA, cytokine coated
[7] = molecular target: T11, recombinant IL-6 (Sinobiological-10395-HNAE) (UniProt P05231 30-212); assay: ELISA, cytokine coated
[8] = molecular target: T6, recombinant IL-27 (R&D systems, …); assay: ELISA, cytokine coated
[9] = molecular target: T1, recombinant OSM (Genscript-z03132); assay: ELISA, cytokine coated; remark: listed apart in the source
[10] = molecular target: T2, recombinant CLC (R&D systems, …); assay: ELISA, cytokine coated; remark: listed apart in the source
[11] = molecular target: T10, recombinant LIF (Peprotech, 300-05); assay: ELISA, cytokine coated; remark: listed apart in the source
[12] = molecular target: T3, recombinant IL-31 (Peprotech, 200-31); assay: ELISA, cytokine coated; remark: listed apart in the source
[13] = molecular target: T4, recombinant CNTF (R&D systems, …); assay: ELISA, cytokine coated; remark: listed apart in the source
[14] = molecular target: T5, recombinant CT-1 (R&D systems, …); assay: ELISA, cytokine coated; remark: listed apart in the source
[15] = molecular target: T7, recombinant IL-11 (LSBio, LS-G132887-10); assay: ELISA, cytokine coated
[16] = molecular target: T11, recombinant IL-6 …; assay: ELISA, cytokine coated; remark: listed apart in the source
[17] = molecular target: T6, recombinant IL-27 (R&D systems, …); assay: ELISA, cytokine coated; remark: listed apart in the source
[18] = molecular target: T8, recombinant human protein antigen …; assay: BLI (Octet QKe), IL-11 (His tag) on Ni-NTA sensor, antibody as analyte
Description: The analytes were diluted in 7 concentration gradients, the binding time was 60 s and the dissociation time was 1000 s. The buffer was 20 mM PBS, 0.15M NaCl, 0.1% BSA, 0.05% Tween 20, pH 7.4. […] In this example, Pall ForteBio (Octet QKe) instrument was used to determine the affinity of antibodies for antigens.

IL-11-Fc protein = molecular target: T9, IL-11-Fc protein; assay: flow cytometry competition: IL-11-Fc plus antibody on membrane-IL-11R CHO cells
From the text: The secondary antibody (Goat-anti-Fc-FITC) (Abcam, ab98529) conjugated with FITC fluorophore was used for detection.

T10 sequence (P15018 23-202 limits assumed): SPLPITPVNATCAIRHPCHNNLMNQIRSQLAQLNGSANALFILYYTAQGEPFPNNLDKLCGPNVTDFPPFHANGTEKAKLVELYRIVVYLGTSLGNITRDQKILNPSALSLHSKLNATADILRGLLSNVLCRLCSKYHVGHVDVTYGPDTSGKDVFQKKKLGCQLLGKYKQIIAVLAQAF

binding result [1] | binding result [2] | binding result [3] | binding result [4] | binding result [5] | binding result [6] | binding result [7] | binding result [8] | OD450 nm [9] [OD450] | OD450 nm [10] [OD450] | OD450 nm [11] [OD450] | OD450 nm [12] [OD450] | OD450 nm [13] [OD450] | OD450 nm [14] [OD450] | OD450 nm [15] [OD450] | OD450 nm [16] [OD450] | OD450 nm [17] [OD450] | Kd [18] [nM] | koff [18] [s⁻¹] | kon [18] [M⁻¹ s⁻¹] | Binder | also measured
no binding | no binding | no binding | no binding | no binding | no binding | no binding | no binding | 0.102 | 0.042 | 0.084 | 0.088 | 0.064 | 0.041 | 1.88 | 0.039 | 0.035 | 0.0393 | 4.16e-05 | 1.06e+06 | 3-6A4 (recombinant, expressed in CHO, Example 6) (antibody, human IgG1, kappa, V domains shown) VH: QIQLVQSGPELKKPGETVKISCKASGYTFTTNGINWVKQAAGKGLKWMGWINTNTGEPTNAEELKGRFAFSLETSASTAYLQINNLKNEDAAIYFCAREGAFGLDYWGQGTSVTVSS VL: SIVMTQSPKFLLVSAGDRVIITCKASQSVSNDVVWYQQKPGQSPKLLIYYGSHRNTGVPTRFTGSGYGTDFTFTISTVQAEDLAVYFCQQDFFSPWTFGGGTKLEIKR | IC50 (IL-11-Fc protein): ~7 µg/mL
no binding | no binding | no binding | no binding | no binding | no binding | no binding | no binding | 0.045 | 0.033 | 0.037 | 0.036 | 0.036 | 0.034 | 1.93 | 0.049 | 0.048 | 0.069 | 1.21e-05 | 175000 | 5-20E11-5F2 (recombinant, expressed in CHO, Example 6) (antibody, human IgG1, kappa, V domains shown) VH: QVQLQQSGAELVRPGTSAKISCKASDYTFTNYWLGWLKQRPGHGLEWIGHIYPGGGYTNYNEKFKGKATLTADTSSSTAYMQLSSLTSEDSAVYFCARVRSGNDALDFWGQGTSVTVSS VL: not shown | IC50 (IL-11-Fc protein): ~21 µg/mL
